Assays:
[1] = system: Lung carcinoma, other carcinomas, soft tissue sarcoma, bone sarcoma; test: Immunohistological staining of other carcinomas and sarcomas (detection specificity to mesothelioma); set-up: species or system human
Description: (§1) AMeX-fixed cell precipitates or formalin-fixed tissues were paraffin-embedded to prepare thin sections. Each of the sections was fixed to a microscope slide, and subjected to deparaffinization and dehydration with xylene and ethanol, followed by activation of an antigen under different conditions. Each section was treated with 3% hydrogen peroxide for 5 minutes to deactivate endogenous peroxidase, and then washed with PBS and blocked with 0.5% casein for 10 minutes. After 100 μL of a solution containing a primary antibody was added to each section and treated at room temperature for 2 hours, the section was washed with PBS and allowed to develop color by using a Histofine Simple Stain MAX-PO (Multi) ([…] BIOSCIENCE INC.), Ventana ultraView DAB universal kit (Roche Diagnostics K. K.), or the EnVision+kits. Each section was stained with hematoxylin and then dehydrated, and encapsulated with Malinol (MUTO PURE CHEMICALS CO., LTD.) to observe under a microscope. The conditions for activation of an antigen were as follows: at 98° C. for 40 minutes for calretinin, mesothelin, and the SKM9-2 antigen; and at 95° C. for 64 minutes for cytokeratin 5/6 (CK5/6), podoplanin, and Wilms' tumor gene product 1 (WT-1). The following activation solutions were used: 10 mM Tris buffer (pH 9.0) containing 1 mM ethylenediamine tetraacetate (EDTA) for calretinin, CK5/6, and podoplanin; and 10 mM citrate buffer (pH 6.0) containing 0.1% TWEEN® 20 (polyethylene glycol sorbitan monolaurate, polyoxyethylenesorbitan monolaurate) for WT-1, mesothelin, and the SKM9-2 antigen. The following primary antibodies were used: a rabbit anti-calretinin polyclonal antibody (PAD:DC8) (Life Technologies Japan Ltd., Tokyo, Japan) for calretinin; a mouse anti-cytokeratin 5,6 monoclonal antibody (D5/16B4) ([…] BIOSCIENCE INC.) for CK5/6; a mouse anti-human mesothelin monoclonal antibody (5B2) (Leica Microsystems, Inc., Bannockburn, IL) for mesothelin; a mouse anti-podoplanin monoclonal antibody (D2-40) (Roche Diagnostics K. K.) for podoplanin; and a mouse anti-human WT-1 monoclonal antibody (6F-H2) (Roche Diagnostics K. K.) for WT-1.
Subsequently, the detection characteristics of the SKM9-2 antibody for other carcinomas were compared with those of other antibodies to confirm the detection specificity to mesothelioma. In this measurement, the detection specificity of each antibody was measured for several carcinomas: gastric carcinoma, colorectal carcinoma, breast carcinoma, ovarian carcinoma, renal cell carcinoma, and urothelial carcinoma, which are more likely to present problems in differential diagnosis of mesothelioma, as “Other carcinomas”; carcinosarcoma, liposarcoma, rhabdomyosarcoma, leiomyosarcoma, fibrosarcoma, synovial sarcoma, gastrointestinal stromal sarcoma (GIST), Ewing's sarcoma, alveolar soft part sarcoma (ASPS), solitary fibrous tumor, malignant peripheral nerve sheath tumor (MPNST), angiosarcoma, epithelioid hemangioendothelioma, epithelioid angiosarcoma, and biphasic synovial sarcoma as “Soft tissue sarcoma”; and chondrosarcoma and osteosarcoma as “Bone sarcoma”.

[2] = system: healthy tissues without any apparent lesion; test: Immunohistological staining of normal tissues; set-up: species or system human
Description: as §1
In addition, the reactivity of the SKM9-2 antibody with normal tissues was examined by immunohistological staining. Immunostaining was performed by using the SKM9-2 antibody for healthy tissues without any apparent lesion.

[3] = system: formalin-fixed tissue sections of cancers except mesothelioma; test: Hybridoma screening by immunostaining of formalin-fixed tissue sections; settings: hybridoma culture supernatant
[4] = system: HEG1 protein on the surface of ACC-MESO4 cells; test: Flow cytometry of ACC-MESO4 cells with antibody; assay type: cell-based, human; settings: FITC-labeled anti-mouse IgG, flow cytometer
Description: First, ACC-MESO4 was cultured, and cells adhering to the culture dish were peeled off with a scraper. The cells peeled off were reacted with the SKM9-2 antibody, and then treated with FITC-labeled anti-mouse IgG, and analyzed by using a flow cytometer. […] If the SKM9-2 antibody binds to the extracellular region of HEG1 protein, cells are to be FITC-labeled and thus fluorescence would be observed in flow cytometry.

[5] = system: mesothelioma; test: Immunohistological staining of mesothelioma tissue sections; set-up: species or system human
From the text: For the detection of mesothelioma according to the present invention, the antibody according to the present invention or an antigen-binding fragment thereof is contacted with a sample. In the case that a sample separated from a living body such as cells, a tissue, or a tissue section is used, antibody reaction can be detected by using a method well known to those skilled in the art (e.g., an immunohistological staining method). If antibody reaction is then observed (e.g., in the case of a positive result), the subject from whom the sample is derived is likely to be affected with mesothelioma. Whether a result for antibody reaction is positive can be determined in accordance with an Allred Score method (see Allred D C et al., Mod Pathol, 11: 155-168, 1998). In the Allred Score method, for example, a total score is calculated from the following equation: Total score (TS)=Proportion score (PS)+Intensity score (IS) If the total score is 3 or more, then it can be determined that the result for reaction is positive. PS and IS can be determined from the following score tables. Score Tables for Allred Score Method Proportion Score, PS • 0: no staining • 1: a proportion of staining of less than 1% • 2: a proportion of staining of 1% or more and less than 10% • 3: a proportion of staining of 10% or more and less than ⅓ • 4: a proportion of staining of ⅓ or more and less than ⅔ • 5: a proportion of staining of ⅔ or more Intensity score, IS • 0: negative • 1: weak staining • 2: intermediate staining • 3: strong staining
as §1
Hereinafter, cases that the fraction of cells with scores of 1 or more determined in accordance with the Allred Score method was 10% or more in the cell were determined as positive.

B1: SKM9-2 antibody: mouse monoclonal IgG1 kappa antibody binding glycosylated HEG1; heavy chain SEQ ID NO: 2, light chain SEQ ID NO: 4 (antibody, listed as Mus musculus)
heavy: MGWSSIILFLVATTTGVHSQVQLQQPGAELVRPGASVKLSCKASGFSFTTYWITWVKQRPGQGLEWIGMIHPSDSETRLSQTFKDKATLTVDKSSNTAYMQFSSPTSEDSAVYYCVRDFDVWGAGTTVTVSSAKTTPPSVYPLAPGSAAQTNSMVTLGCLVKGYFPEPVTVTWNSGSLSSGVHTFPAVLQSDLYTLSSSVTVPSSTWPSETVTCNVAHPASSTKVDKKIVPRDCGCKPCICTVPEVSSVFIFPPKPKDVLTITLTPKVTCVVVDISKDDPEVQFSWFVDDVEVHTAQTQPREEQFNSTFRSVSELPIMHQDWLNGKEFKCRVNSAAFPAPIEKTISKTKGRPKAPQVYTIPPPKEQMAKDKVSLTCMITDFFPEDITVEWQWNGQPAENYKNTQPIMDTDGSYFVYSKLNVQKSNWEAGNTFTCSVLHEGLHNHHTEKSLSHSPGK
light: MKLPVRLLVLMFWIPASISDVLMTQTPLSLPVSLGDQASISCRSSQNIVHNNGNTYLGWYLQKPGQSPKLLIFKVSNRFSGVPDRFSGSGSGTDFTLKISRVEAEDLGVYYCFQGSHIPRTFGGGTRLEIKRADAAPTVSIFPPSSEQLTSGGASVVCFLNNFYPKDINVKWKIDGSERQNGVLNSWTDQDSKDSTYSMSSTLTLTKDEYERHNSYTCEATHKTSTSPIVKSFNRNEC
**Q.** With B1 as the molecule, how does the “Bone sarcoma (positive cases/cases)” value ([1]; chondrosarcoma and osteosarcoma) read?
**A.** 0/20

**Q.** What about the “Positive cases, epithelioid hemangioendothelioma” value ([1]; epithelioid hemangioendothelioma) of the same molecule?
**A.** 1/6

**Q.** And the “Other carcinomas (positive cases/cases)” value ([1]; gastric, colorectal, breast, ovarian, renal cell, urothelial carcinoma)?
**A.** 1/60

**Q.** What about the “Positive cases, leiomyosarcoma” value ([1]; leiomyosarcoma) of the same molecule?
**A.** 1/10

**Q.** What about the “Lung carcinoma (positive cases/cases)” value ([1]; lung carcinoma) of the same molecule?
**A.** 0/98

**Q.** And the “Specificity (%)” value ([1]; mesothelioma specificity over all non-mesothelioma tumors)?
**A.** 99.0%

**Q.** And the “Soft tissue sarcoma (positive cases/cases)” value ([1]; soft tissue sarcoma)?
**A.** 2/132

**Q.** What about the “Positive cases, urothelial carcinoma” value ([1]; urothelial carcinoma) of the same molecule?
**A.** 1/10

**Q.** And the “Number of positive cases/number of samples” value ([2]; Bladder and ureter)?
**A.** 0/5

**Q.** And the “Number of positive cases/number of samples” value ([2]; Blood vessel, *Some cells were positive)?
**A.** *5/8

**Q.** And the “Number of positive cases/number of samples” value ([2]; Bronchus)?
**A.** 0/12

**Q.** What about the “Number of positive cases/number of samples” value ([2]; Cerebrum) of the same molecule?
**A.** 0/29

**Q.** What about the “Number of positive cases/number of samples” value ([2]; Duodenum) of the same molecule?
**A.** 0/2

**Q.** And the “Number of positive cases/number of samples” value ([2]; Esophagus)?
**A.** 0/2

**Q.** And the “Number of positive cases/number of samples” value ([2]; Gallbladder)?
**A.** 0/5

**Q.** And the “Number of positive cases/number of samples” value ([2]; Kidney)?
**A.** 0/10

**Q.** What about the “Number of positive cases/number of samples” value ([2]; Large intestine) of the same molecule?
**A.** 0/6

**Q.** What about the “Number of positive cases/number of samples” value ([2]; Liver) of the same molecule?
**A.** 0/8

**Q.** What about the “Number of positive cases/number of samples” value ([2]; Lung) of the same molecule?
**A.** 0/23

**Q.** And the “Number of positive cases/number of samples” value ([2]; Lymph node)?
**A.** 0/4

**Q.** What about the “Number of positive cases/number of samples” value ([2]; Mammary gland) of the same molecule?
**A.** 0/5

**Q.** What about the “Number of positive cases/number of samples” value ([2]; Muscle) of the same molecule?
**A.** 0/4

**Q.** And the “Number of positive cases/number of samples” value ([2]; Myocardium)?
**A.** 0/12

**Q.** What about the “Number of positive cases/number of samples” value ([2]; Ovary) of the same molecule?
**A.** 0/4

**Q.** What about the “Number of positive cases/number of samples” value ([2]; Pancreas) of the same molecule?
**A.** 0/10

**Q.** What about the “Number of positive cases/number of samples” value ([2]; Pericardium) of the same molecule?
**A.** 1/1

**Q.** What about the “Number of positive cases/number of samples” value ([2]; Peritoneum) of the same molecule?
**A.** 0/2

**Q.** What about the “Number of positive cases/number of samples” value ([2]; Pleura) of the same molecule?
**A.** 0/5

**Q.** What about the “Number of positive cases/number of samples” value ([2]; Prostate) of the same molecule?
**A.** 0/10

**Q.** And the “Number of positive cases/number of samples” value ([2]; Stomach)?
**A.** 0/3

**Q.** What about the “Number of positive cases/number of samples” value ([2]; Testicular serosa) of the same molecule?
**A.** 0/1

**Q.** And the “Number of positive cases/number of samples” value ([2]; Testis)?
**A.** 1/5

**Q.** And the “Number of positive cases/number of samples” value ([2]; Thyroid)?
**A.** 0/5

**Q.** And the “Reactivity with normal tissue cells” value ([2]; normal mesothelial cells other than pericardial mesothelial cells)?
**A.** Negative

**Q.** And the “Reactivity with normal tissue cells” value ([2]; pericardial mesothelial cells)?
**A.** positive image

**Q.** What about the “Reactivity with normal tissue cells” value ([2]; seminiferous tubule, one case for the testis) of the same molecule?
**A.** positive

**Q.** And the “Reactivity with normal tissue cells” value ([2]; vascular endothelial cells)?
**A.** positive image

**Q.** What about the “Reactivity with formalin-fixed tissue sections of cancers except mesothelioma” value [3] of the same molecule?
**A.** almost non-reactive

**Q.** And the “Binding to cell surface of ACC-MESO4” value [4]?
**A.** bind to a HEG1 protein part exposed on the surface of the cell membrane

**Q.** What about the “Staining of well-differentiated papillary mesothelioma (WDPM)” value ([5]; WDPM) of the same molecule?
**A.** one in one case

**Q.** What about the “Sensitivity (%)” value ([5]; all mesothelioma types) of the same molecule?
**A.** 91.3%

**Q.** And the “Detection of mesothelioma, Biphasic (positive cases/cases)” value ([5]; biphasic mesothelioma)?
**A.** 12/13

**Q.** What about the “Detection of mesothelioma, Desmoplastic (positive cases/cases)” value ([5]; desmoplastic mesothelioma) of the same molecule?
**A.** 3/4

**Q.** And the “Staining of mesothelioma, representative images” value ([5]; epithelial mesothelioma and sarcomatoid mesothelioma)?
**A.** successfully stained

**Q.** What about the “Detection of mesothelioma, Epithelial (positive cases/cases)” value ([5]; epithelial mesothelioma, positive = fraction of cells with Allred score 1 or more is 10% or more) of the same molecule?
**A.** 62/66

**Q.** And the “Detection of mesothelioma, Sarcomatoid (positive cases/cases)” value ([5]; sarcomatoid mesothelioma)?
**A.** 7/9

Source: patent US12123876B2, “Antibody binding to HEG1 and use of the antibody for detection and treatment of mesothelioma” (Kanagawa Prefectural Hospital Organization, priority 2016, dated 2024)
